Source: paper PMC13178787 (Nature, 2024)

T1: GST-tagged dystrophin (3049–3299) (mouse, UniProt P11531 3049-3299)
T1 sequence (looked up): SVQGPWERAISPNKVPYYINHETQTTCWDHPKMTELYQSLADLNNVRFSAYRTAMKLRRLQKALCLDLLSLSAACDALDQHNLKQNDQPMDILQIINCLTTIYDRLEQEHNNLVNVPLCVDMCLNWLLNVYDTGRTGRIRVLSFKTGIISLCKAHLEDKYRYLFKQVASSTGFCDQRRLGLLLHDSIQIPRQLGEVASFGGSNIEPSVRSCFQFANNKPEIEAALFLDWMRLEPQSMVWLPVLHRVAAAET

B1: β-dystroglycan (natural protein, mouse (endogenous in skeletal muscle), UniProt Q62165 652-893, looked up)
chain: SIVVEWTNNTLPLEPCPKEQIIGLSRRIADENGKPRPAFSNALEPDFKALSIAVTGSGSCRHLQFIPVAPPSPGSSAAPATEVPDRDPEKSSEDDVYLHTVIPAVVVAAILLIAGIIAMICYRKKRKGKLTLEDQATFIKKGVPIIFADELDDSKPPPSSSMPLILQEEKAPLPPPEYPNQSMPETTPLNQDTVGEYTPLRDEDPNAPPYQPPPPFTAPMEGKGSRPKNMTPYRSPPPYVPP
modifications: glycosylated at N659
B2: β-sarcoglycan (natural protein, mouse (endogenous in skeletal muscle), UniProt P82349 1-320, looked up)
chain: MAAAAAAAAATEQQGSNGPVKKSMREKAVERRNVNKEHNSNFKAGYIPIDEDRLHKTGLRGRKGNLAICVIVLLFILAVINLLITLVIWAVIRIGPNGCDSMEFHESGLLRFKQVSDMGVIHPLYKSTVGGRRNENLVITGNNQPIVFQQGTTKLSVEKNKTSITSDIGMQFFDPRTHNILFSTDYETHEFHLPSGVKSLNVQKASTERITSNATSDLNIKVDGRAIVRGNEGVFIMGKTIEFHMGGDVELKAENSIILNGTVMVSPTRLPSSSSGDQSGSGDWVRYKLCMCADGTLFKVQVTGHNMGCQVSDNPCGNTH
modifications: glycosylated at N160, N213, N260

What was measured:
β-sarcoglycan = biological target: B2; assay: cryo-EM structure
[1] = biological target: T1, GST-tagged dystrophin (3049–3299); assay: SEC
dystrophin = dystrophin (mouse (endogenous in skeletal muscle), UniProt P11531 1-3678); assay: cryo-EM structure
β-dystroglycan = biological target: B1; assay: cryo-EM structure

Sequence of dystrophin (P11531 whole entry): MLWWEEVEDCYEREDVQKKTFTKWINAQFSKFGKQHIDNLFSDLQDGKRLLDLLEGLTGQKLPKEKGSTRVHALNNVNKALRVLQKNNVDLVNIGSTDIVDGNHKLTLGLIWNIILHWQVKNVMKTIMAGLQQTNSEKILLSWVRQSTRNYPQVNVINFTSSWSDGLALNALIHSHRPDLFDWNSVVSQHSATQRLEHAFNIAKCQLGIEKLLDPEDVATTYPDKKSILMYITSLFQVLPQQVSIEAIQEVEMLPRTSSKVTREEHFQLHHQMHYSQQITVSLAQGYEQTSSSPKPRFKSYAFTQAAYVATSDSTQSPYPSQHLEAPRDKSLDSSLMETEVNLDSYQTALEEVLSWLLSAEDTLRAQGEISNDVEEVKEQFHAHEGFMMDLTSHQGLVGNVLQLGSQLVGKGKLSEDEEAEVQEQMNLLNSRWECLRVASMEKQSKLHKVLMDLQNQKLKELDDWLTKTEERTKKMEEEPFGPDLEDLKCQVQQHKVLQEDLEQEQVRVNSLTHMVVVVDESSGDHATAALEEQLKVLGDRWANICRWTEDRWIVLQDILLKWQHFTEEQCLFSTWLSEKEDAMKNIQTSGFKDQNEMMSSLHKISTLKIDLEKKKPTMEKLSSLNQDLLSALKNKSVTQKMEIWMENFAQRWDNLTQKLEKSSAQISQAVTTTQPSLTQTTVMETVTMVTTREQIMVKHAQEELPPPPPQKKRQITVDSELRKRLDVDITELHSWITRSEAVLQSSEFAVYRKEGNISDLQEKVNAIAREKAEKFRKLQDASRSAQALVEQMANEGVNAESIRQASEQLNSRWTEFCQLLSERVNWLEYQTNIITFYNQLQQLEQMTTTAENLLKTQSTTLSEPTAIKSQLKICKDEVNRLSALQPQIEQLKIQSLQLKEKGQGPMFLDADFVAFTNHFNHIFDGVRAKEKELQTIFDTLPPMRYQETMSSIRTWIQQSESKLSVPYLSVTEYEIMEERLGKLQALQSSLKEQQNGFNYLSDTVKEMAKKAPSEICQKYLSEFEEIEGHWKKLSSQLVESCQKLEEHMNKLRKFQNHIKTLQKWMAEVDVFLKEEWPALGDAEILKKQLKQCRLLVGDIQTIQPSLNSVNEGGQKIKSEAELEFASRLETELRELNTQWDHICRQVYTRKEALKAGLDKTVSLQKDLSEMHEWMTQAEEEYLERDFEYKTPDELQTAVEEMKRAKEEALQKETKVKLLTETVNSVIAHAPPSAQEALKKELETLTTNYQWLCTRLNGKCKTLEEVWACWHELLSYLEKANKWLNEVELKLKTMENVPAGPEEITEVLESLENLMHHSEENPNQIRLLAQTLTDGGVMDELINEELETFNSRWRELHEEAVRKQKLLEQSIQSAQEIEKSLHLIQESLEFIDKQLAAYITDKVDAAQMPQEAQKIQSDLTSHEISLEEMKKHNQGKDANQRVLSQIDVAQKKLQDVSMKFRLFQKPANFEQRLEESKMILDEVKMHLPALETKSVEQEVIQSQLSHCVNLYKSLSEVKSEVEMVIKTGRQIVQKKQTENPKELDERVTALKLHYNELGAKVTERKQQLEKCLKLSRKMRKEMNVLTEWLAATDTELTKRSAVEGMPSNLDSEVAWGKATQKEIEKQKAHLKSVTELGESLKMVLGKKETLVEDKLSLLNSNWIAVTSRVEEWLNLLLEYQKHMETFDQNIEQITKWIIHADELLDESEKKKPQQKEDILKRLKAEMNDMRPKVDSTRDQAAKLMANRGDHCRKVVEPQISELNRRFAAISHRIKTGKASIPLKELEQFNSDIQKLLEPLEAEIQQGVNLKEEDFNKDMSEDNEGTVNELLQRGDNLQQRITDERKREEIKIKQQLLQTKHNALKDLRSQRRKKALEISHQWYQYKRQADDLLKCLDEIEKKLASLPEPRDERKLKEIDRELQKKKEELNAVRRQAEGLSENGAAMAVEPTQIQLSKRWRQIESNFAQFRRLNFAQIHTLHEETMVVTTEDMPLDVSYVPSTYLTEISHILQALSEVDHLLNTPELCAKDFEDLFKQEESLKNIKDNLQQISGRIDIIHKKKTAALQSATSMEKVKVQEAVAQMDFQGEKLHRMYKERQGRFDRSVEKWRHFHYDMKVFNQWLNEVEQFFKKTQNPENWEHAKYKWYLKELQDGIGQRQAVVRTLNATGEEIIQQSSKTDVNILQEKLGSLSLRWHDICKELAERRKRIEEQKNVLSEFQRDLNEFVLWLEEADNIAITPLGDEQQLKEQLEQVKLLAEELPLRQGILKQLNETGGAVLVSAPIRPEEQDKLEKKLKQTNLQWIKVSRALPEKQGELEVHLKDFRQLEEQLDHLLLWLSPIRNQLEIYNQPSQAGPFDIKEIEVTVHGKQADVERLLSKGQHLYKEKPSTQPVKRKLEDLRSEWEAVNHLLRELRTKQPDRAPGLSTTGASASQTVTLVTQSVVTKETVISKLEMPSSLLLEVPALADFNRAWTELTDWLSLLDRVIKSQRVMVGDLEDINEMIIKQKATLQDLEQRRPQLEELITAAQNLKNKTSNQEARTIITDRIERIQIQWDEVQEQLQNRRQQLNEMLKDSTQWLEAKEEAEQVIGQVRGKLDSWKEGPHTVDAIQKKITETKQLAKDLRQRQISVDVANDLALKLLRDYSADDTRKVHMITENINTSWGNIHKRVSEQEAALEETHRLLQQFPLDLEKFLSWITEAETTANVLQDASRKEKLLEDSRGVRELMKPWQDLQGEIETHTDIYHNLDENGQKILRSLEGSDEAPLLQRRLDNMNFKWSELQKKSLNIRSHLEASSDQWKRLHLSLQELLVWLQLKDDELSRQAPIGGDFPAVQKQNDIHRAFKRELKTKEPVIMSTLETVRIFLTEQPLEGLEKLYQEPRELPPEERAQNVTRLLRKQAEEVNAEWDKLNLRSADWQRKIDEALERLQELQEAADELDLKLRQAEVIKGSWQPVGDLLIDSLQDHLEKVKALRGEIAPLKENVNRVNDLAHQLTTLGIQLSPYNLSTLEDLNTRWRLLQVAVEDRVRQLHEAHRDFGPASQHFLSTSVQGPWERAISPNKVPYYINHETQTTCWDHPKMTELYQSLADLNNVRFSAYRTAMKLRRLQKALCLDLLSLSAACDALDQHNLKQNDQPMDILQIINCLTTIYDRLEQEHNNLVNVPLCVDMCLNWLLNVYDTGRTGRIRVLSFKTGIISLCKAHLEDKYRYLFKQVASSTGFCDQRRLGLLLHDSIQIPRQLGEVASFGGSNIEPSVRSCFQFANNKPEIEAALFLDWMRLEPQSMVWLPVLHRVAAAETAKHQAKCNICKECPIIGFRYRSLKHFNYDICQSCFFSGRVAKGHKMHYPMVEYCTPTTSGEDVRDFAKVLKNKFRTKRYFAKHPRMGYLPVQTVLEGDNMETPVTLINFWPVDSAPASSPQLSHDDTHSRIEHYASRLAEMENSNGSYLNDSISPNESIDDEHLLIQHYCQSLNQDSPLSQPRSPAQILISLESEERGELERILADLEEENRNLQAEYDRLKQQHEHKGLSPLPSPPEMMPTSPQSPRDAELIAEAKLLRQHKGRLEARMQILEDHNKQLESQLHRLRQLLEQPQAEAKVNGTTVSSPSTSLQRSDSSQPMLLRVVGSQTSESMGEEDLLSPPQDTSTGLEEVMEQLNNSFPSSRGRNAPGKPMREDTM

| binding result (dystrophin) | Binder | also measured |
| --- | --- | --- |
| – | δ-sarcoglycan (natural protein, mouse (endogenous in skeletal muscle), UniProt P82347 1-289, looked up, glycosylated at N108) MPQEQYSHHRSTMPSSEGPHIYKVGIYGWRKRCLYFFVLLLMILILVNLAMTIWILKVMNFTIDGMGNLRITEKGLKLEGDSEFLQPLYAKEIKSRPGNALYFKSARNVTVNILNDQTKVLTQLVTGPKAVEAYGKRFEVKTVSGKLLFSADDSEVVVGAERLRVLGAEGTVFPKSIETPNVRADPFKELRLESPTRSLVMEAPKGVEINAEAGNMEAICRSELRLESKDGEIKLDAAKIKLPRLPRGSYTPTGTRQKVFEVCVCANGRLFLSQAGTGSTCQINTSVCL | binding result (β-sarcoglycan): binds |
| – | 6×His-tagged dystrobrevin (1–237) (domain or fragment, mouse, UniProt Q9D2N4 1-237, looked up) MIEDSGKRGNTMAERRQLFAEMRAQDLDRIRLSTYRTACKLRFVQKKCNLHLVDIWNVIEALRENALNNLDPNIELNVARLEAVLSTIFYQLNKRMPTTHQIHVEQSISLLLNFLLAAFDPEGHGKISVFAVKMALATLCGGKIMDKLRYIFSMISDSSGVMVYGRYDQFLREVLKLPTAVFEGPSFGYTEQSARSCFSQQKKVTLNGFLDTLMSDPPPQCLVWLPLLHRLANVENV | binding result [1]: binds |
| binds | B1 | – |
| binds | dystrobrevin (natural protein, mouse (endogenous in skeletal muscle), UniProt Q9D2N4 1-746, looked up) MIEDSGKRGNTMAERRQLFAEMRAQDLDRIRLSTYRTACKLRFVQKKCNLHLVDIWNVIEALRENALNNLDPNIELNVARLEAVLSTIFYQLNKRMPTTHQIHVEQSISLLLNFLLAAFDPEGHGKISVFAVKMALATLCGGKIMDKLRYIFSMISDSSGVMVYGRYDQFLREVLKLPTAVFEGPSFGYTEQSARSCFSQQKKVTLNGFLDTLMSDPPPQCLVWLPLLHRLANVENVFHPVECSYCHSESMMGFRYRCQQCHNYQLCQDCFWRGHAGGSHSNQHQMKEYTSWKSPAKKLTNALSKSLSCASSREPLHPMFPDQPEKPLNLAHIVPPRPVTSMNDTLFSHSVPSSGSPFITRSSPPKDSEVEQNKMLARAAPAFLKGRGIQYSLNVADRLADEHVLIGLYVNMLRNDPPCMLESSNRLDEEHRLIARYAARLAAESSSSQPTQQRSAPDISFTIDANKQQRQLIAELENKNREILQEIQRLRVEHEQASQPTPEKAQQNPTLLAELRLLRQRKDELEQRMSALQESRRELMVQLEGLMKLLKEEELKQGTQGASSPRSSPSHTISRPIPMPIRSASACPTPTHTPQDSLTGVGGDVQEAFAQSSRRNLRSDLLVAADSITNTMSSLVKELNSEVASETESTVDSEFSRPQFEDLAPSPTSEKAFLAQIHSRKPGYIHGGAASTTHGDMVPEDGDPYTQPEDGNYENESVRQLENELQLEEYLKQKLQDEAYQVSLQG | – |
| binds | B2 | – |
| – | sarcospan (natural protein, mouse (endogenous in skeletal muscle), UniProt Q62147 1-216, looked up) MGRKPSPRAQELPEEEARTCCGCRFPLLLALLQLALGIAVTVLGFLMASISPSLLVRDTPFWAGSIVCVVAYLGLFMLCVSYQVDERTCVQFSMKVFYFLLSALGLMVCMLAVAFAAHHYSLLAQFTCETSLDSCQCKLPSSEPLSRAFVYRDVTDCTSVTGTFKLFLIIQMVLNLVCGLVCLLACFVMWKHRYQVFYVGVGLRSLMASDGQLPKA | binding result (β-dystroglycan): binds |
